According to US20120165211A1, “Human Antibodies Cross-Reacting With A Bacterial And A Self Antigen From Atherosclerotic Plaques” (priority 2007, published 2012):

Legend:
[1] = tested on: antigen in the carotid lysate; assay: Western blotting on carotid lysates; assay type: binding, human; settings: Fab 10 μg/ml; protein extracts 20 μg/lane
Method: Carotid plaques were macrodissected in 2 mm-thick rings and frozen in isopentane/liquid nitrogen. Every ring was considered as a single specimen. For each patient proteins were extracted from a stenotic and a non-stenotic ring by tissue homogenization in RIPA lysis buffer. The protein content of carotid plaque homogenates was quantified by Bradford assay. Western blot was performed on protein extracts (20 μg/lane) by using 10% Sodium Dodecyl Sulphate-PolyAcrylamide Gel Electrophoresis (SDS-PAGE). SDS-PAGE loading buffer was added to protein lysates before heating at 90° C. for 5 min. Gel was run for about 2 hours at 120V. […] Target (7816-FLAG) and reference proteins (bActin) were detected with specific antibodies (anti-FLAG clone M2 followed by Rabbit-anti Mouse IgG-HRP, and Rabbit-anti Mouse IgG-HRP, respectively—all from Sigma (cod: A9917, St. Louis, Mo.). The membrane was developed by SuperSignal West Pico Chemiluminescent Substrate (Pierce) according to the manufacture instructions. The mean pixel optical density (OD) for each band of the target protein, determined by densitometry, was normalized vs. β-Actin, to evaluate its quantity with respect to carotid plaque total cells. Stenotic and non stenotic rings from stable and unstable (determined by US) carotid plaque specimens were compared.

[2] = tested on: carotid plaque; assay: Immunohistology (immunofluorescence) on carotid plaque sections; assay type: binding, human; settings: 7816Fab-FLAG detected with anti-FLAG clone M2 and anti-Mouse IgG AlexaFluor488
Method: Carotid plaques harvested during TEA surgery, just after excision were fixed in 4% paraformaldehyde in PBS, cut in consecutive 2 mm thick rings, decalcified in EDTA solution when required, cryoprotected in 10% sucrose in PBS, embedded in OCT compound, then snap frozen in isopentane/liquid nitrogen and stored at −80° C. Cryosections ([…]) were cut from every ring and stained with either Hematoxylin/Eosin or Movat's pentachrome, thus the morphology was examined in at least 4 sections/ring using an Eclipse 55i microscope equipped with DS-L1 camera and LUCIA 4.82 software (all from Nikon, Tokyo, J). Multiple images collected from each ring, were composed by LUCIA 4.82 software, to obtain a whole section picture. The presence of thin cap, foam cells, fibrolipids, ulcerations, necrotic/thrombotic core, calcifications, hemorrhage/thrombosis and inflammatory infiltrate were used to classify carotid plaques as stable, vulnerable, or unstable, following Virmani's modified AHA classification. Additional sections (10 μm thick) from rings with and without atheroma were selected and submitted for immunolabeling with anti CD138 antibody or with 7816Fab-FLAG detected with anti-FLAG clone M2 followed by rabbit-anti-Mouse IgG AlexaFluor488. DAPI stained the nuclei. […] The nuclear fluorescence was due to DAPI staining.

B1: Fab7816: human recombinant Fab from coronary plaque library ID11LIB; heavy chain SEQ ID NO:2, light chain SEQ ID NO:4 (antibody, listed as Homo sapiens, V domains shown)
VH: LESGPGQVKPSQTLSLTCTVSGGSIGSGSYSWNWIRQPAGRGLEWIGRISDSGNTNFNPSLKSRVTMSVDTSKNQFALKLTSVTAADTATYFCARGRGILTGLFDYWGQGSLVSVSSASTKGPSVFPLAPSSKSTSGGTAALGCLVKD
VL: SPDSLAVSPGGRATIKCASSQSVLDNSNHKNSLAWYQQKPGLPPKLLIYWASTRYSGVPDRFSGSGSGTDFTLTINNLQAADVAVYFCQQYYSTPWTFGQGTKVE
binding in Western blot on carotid lysate [1]: binding with an antigen in the carotid lysate | immunofluorescence staining of carotid plaque sections [2]: specific immonostaining, mainly cytoplasmic
